This passage reports TRF signal for 0.6 ug/mL Fab, TRF signal for 2.4 ug/mL Fab and TRF signal for 10 ug/mL Fab results from patent US20260043020A1, “BINDING MEMBERS WITH ALTERED DIVERSITY SCAFFOLD DOMAINS” (priority 2016, published 2026).

For the test, the target named is trypsin. The test is described as follows: TRF ELISA, Fab on biotinylated trypsin. (An ELISA detects its analyte on a solid surface through an enzyme-linked reagent.)

B1: KB_A01 Fab (Fab, V domains shown)
VH: EVQLVESGGGLVRPGGSLRLSCAASGFTFSSYAMSWVRQAPGKGLEWVSAISGSGGSTYYADSVKGRFTISRDNTKNSLYLQMTSLRADDTAFYYCVKDFGPGYGTGWFDYWGPGTLVTVSS
VL: YLNWYQQKPGKAPKLLIYAAEVCPRILMRCKQDSDCLAGCVCGPNGFCGGTSGVPSRFSGSRSGTEFTLTISSLQPEDFATYYCQKVDDYPLTFGGGTKVEIKR
In turn, B1 came in with a TRF signal for 0.6 ug/mL Fab of 2390, a TRF signal for 2.4 ug/mL Fab of 16600 and a TRF signal for 10 ug/mL Fab of 55600.

B2: KB_B01 Fab (Fab, V domains shown)
VH: EVQLVESGGGLVRPGGSLRLSCAASGFTFSSYAMSWVRQAPGKGLEWVSAISGSGGSTYYADSVKGRFTISRDNTKNSLYLQMTSLRADDTAFYYCVKDFGPGYGTGWFDYWGPGTLVTVSS
VL: AVNWYQQLPGKAPKLLIYAAAGCPRILMRCKQDSDCLAGCVCGPNGFCGTRSGVSDRFSGSKSGTSASLAISGLRSEDEADYYCAAWDDSLRAYVFGTGTKLTVLG
On to B2, for which the TRF signal for 0.6 ug/mL Fab stood at 54800, the TRF signal for 2.4 ug/mL Fab is 153000 and the TRF signal for 10 ug/mL Fab is 257000.

B3: KB_C07 Fab (Fab, V domains shown)
VH: EVQLVESGGGLVRPGGSLRLSCAASGFTFSSYAMSWVRQAPGKGLEWVSAISGSGGSTYYADSVKGRFTISRDNTKNSLYLQMTSLRADDTAFYYCVKDFGPGYGTGWFDYWGPGTLVTVSS
VL: AVNWYQQLPGKAPKLLIYAAVGCPRILMRCKQDSDCLAGCVCGPNGFCGSASGVSDRFSGSKSGTSASLAISGLRSEDEADYYCASWDDSLRGYVFGTGTKVTVLG
In the case of B3, the TRF signal for 0.6 ug/mL Fab amounted to 153000, the TRF signal for 2.4 ug/mL Fab came to 247000 and the TRF signal for 10 ug/mL Fab was 276000.

B4: KB_A06 Fab (Fab, V domains shown)
VH: EVQLVESGGGLVRPGGSLRLSCAASGFTFSSYAMSWVRQAPGKGLEWVSAISGSGGSTYYADSVKGRFTISRDNTKNSLYLQMTSLRADDTAFYYCVKDFGPGYGTGWFDYWGPGTLVTVSS
VL: AVNWYQQLPGKAPKLLIYAAVRCPRILMRCKQDSDCLAGCVCGPNGFCGTPSGIPERFSGSIDRSTNSASLTISGLKTEDEADYYCQSYDSSNLNWVFGGGTKLTVLG
B4 registered a TRF signal for 0.6 ug/mL Fab of 108000, a TRF signal for 2.4 ug/mL Fab of 212000 and a TRF signal for 10 ug/mL Fab of 242000.

B5: KB_A07 Fab (Fab, V domains shown)
VH: EVQLVESGGGLVRPGGSLRLSCAASGFTFSSYAMSWVRQAPGKGLEWVSAISGSGGSTYYADSVKGRFTISRDNTKNSLYLQMTSLRADDTAFYYCVKDFGPGYGTGWFDYWGPGTLVTVSS
VL: YLNWYQQKPGKAPKLLIYAAGVCPRILMRCKQDSDCLAGCVCGPNGFCGSRSGVPSRFSGSGSGTDFTLTISSLQPEDFATYYCQQGASPPYTFGQGTKVEIKR
B5 showed a TRF signal for 0.6 ug/mL Fab of 108000, a TRF signal for 2.4 ug/mL Fab of 201000 and a TRF signal for 10 ug/mL Fab of 226000.

B6: KB_C08 Fab (Fab, V domains shown)
VH: EVQLVESGGGLVRPGGSLRLSCAASGFTFSSYAMSWVRQAPGKGLEWVSAISGSGGSTYYADSVKGRFTISRDNTKNSLYLQMTSLRADDTAFYYCVKDFGPGYGTGWFDYWGPGTLVTVSS
VL: AVNWYQQLPGKAPKLLIYAAAVCPRILMRCKQDSDCLAGCVCGPNGFCGTRSGIPERFSGSKSGTSAFLAISGLRSEDEADYYCAAWDDSLSGVVFGGGTKLTVLG
The molecule B6 came in with a TRF signal for 0.6 ug/mL Fab of 51100, a TRF signal for 2.4 ug/mL Fab of 131000 and a TRF signal for 10 ug/mL Fab of 183000.

B7: KB_B02 Fab (Fab, V domains shown)
VH: EVQLVESGGGLVRPGGSLRLSCAASGFTFSSYAMSWVRQAPGKGLEWVSAISGSGGSTYYADSVKGRFTISRDNTKNSLYLQMTSLRADDTAFYYCVKDFGPGYGTGWFDYWGPGTLVTVSS
VL: AVNWYQQLPGKAPKLLIYAAVGCPRILMRCKQDSDCLAGCVCGPNGFCGTGSGIPERFSGSKSGNTASLTISGLQAEDEGDYYCAAWDDSLSGPVFGGGTKLTVLG
In the case of B7, the TRF signal for 0.6 ug/mL Fab came to 2340, the TRF signal for 2.4 ug/mL Fab was 15900 and the TRF signal for 10 ug/mL Fab is 56600.

B8: KB_A02 Fab (Fab, V domains shown)
VH: EVQLVESGGGLVRPGGSLRLSCAASGFTFSSYAMSWVRQAPGKGLEWVSAISGSGGSTYYADSVKGRFTISRDNTKNSLYLQMTSLRADDTAFYYCVKDFGPGYGTGWFDYWGPGTLVTVSS
VL: AVNWYQQLPGKAPKLLIYAAAKCPRILMRCKQDSDCLAGCVCGPNGFCGGASGVSDRFSGSIDSSSNSASLTISGLKPEDEGDYYCQSYDSSNRWVFGGGTKVTVLG
Take B8: the TRF signal for 0.6 ug/mL Fab is 93800, the TRF signal for 2.4 ug/mL Fab was determined as 221000 and the TRF signal for 10 ug/mL Fab was 255000.

B9: KB_C09 Fab (Fab, V domains shown)
VH: EVQLVESGGGLVRPGGSLRLSCAASGFTFSSYAMSWVRQAPGKGLEWVSAISGSGGSTYYADSVKGRFTISRDNTKNSLYLQMTSLRADDTAFYYCVKDFGPGYGTGWFDYWGPGTLVTVSS
VL: AVNWYQQLPGKAPKLLIYAAGRCPRILMRCKQDSDCLAGCVCGPNGFCGGGSGVPDRFSGSIDSSSNSASLTISGLRAEDEADYYCQSYDSSNHWVFGGGTKLTVLG
Molecule B9 registered a TRF signal for 0.6 ug/mL Fab of 46800, a TRF signal for 2.4 ug/mL Fab of 205000 and a TRF signal for 10 ug/mL Fab of 289000.

B10: KB_A09 Fab (Fab, V domains shown)
VH: EVQLVESGGGLVRPGGSLRLSCAASGFTFSSYAMSWVRQAPGKGLEWVSAISGSGGSTYYADSVKGRFTISRDNTKNSLYLQMTSLRADDTAFYYCVKDFGPGYGTGWFDYWGPGTLVTVSS
VL: AVNWYQQLPGKAPKLLIYAAERCPRILMRCKQDSDCLAGCVCGPNGFCGTPSGVPDRFSGSIDTFSNSASLTISGLKTEDEADYYCQSYDSSHHWVFGGGTKLTVLG
B10 displayed a TRF signal for 0.6 ug/mL Fab of 21000, a TRF signal for 2.4 ug/mL Fab of 84100 and a TRF signal for 10 ug/mL Fab of 161000.

B11: KB_A10 Fab (Fab, V domains shown)
VH: EVQLVESGGGLVRPGGSLRLSCAASGFTFSSYAMSWVRQAPGKGLEWVSAISGSGGSTYYADSVKGRFTISRDNTKNSLYLQMTSLRADDTAFYYCVKDFGPGYGTGWFDYWGPGTLVTVSS
VL: AVNWYQQLPGKAPKLLIYAAGGCPRILMRCKQDSDCLAGCVCGPNGFCGSNSGVPDRFSGSKSGNTASLTISGLQSEDEADYYCAAWDDSLSGVVFGGGTQLTVLG
On to B11, for which the TRF signal for 0.6 ug/mL Fab is 14600, the TRF signal for 2.4 ug/mL Fab was 71900 and the TRF signal for 10 ug/mL Fab was found to be 68700.

B12: KB_A11 Fab (Fab, V domains shown)
VH: EVQLVESGGGLVRPGGSLRLSCAASGFTFSSYAMSWVRQAPGKGLEWVSAISGSGGSTYYADSVKGRFTISRDNTKNSLYLQMTSLRADDTAFYYCVKDFGPGYGTGWFDYWGPGTLVTVSS
VL: YLNWYQQKPGKAPKLLIYAAEICPRILMRCKQDSDCLAGCVCGPNGFCGPSSGIPARFSGSGYGTDFTLTINNIESEDAAYYFCLQHDNFPYTFGQGTKVEIKR
In turn, B12 showed a TRF signal for 0.6 ug/mL Fab of 48900, a TRF signal for 2.4 ug/mL Fab of 141000 and a TRF signal for 10 ug/mL Fab of 212000.
